Experiments:
[1] = target: T1, AMHR2-Fc/Fc, heterodimer of one AMHR2-Fc chain (extracellular domain of human AMHR2 fused to human IgG1 Fc) … (human, UniProt Q16671 18-149; P01857 104-330 = IgG part); assay: ELISA; AMHR2-Fc/Fc (0.75 ug/ml) captured on goat antihuman Fc Ab coated on the plate; c-AMH or GF serially diluted, 2 to 4 h; bound AMH detected with biotinylated mAb-C1 (GF) or mAb-N1 (prodomain) and SA-HRP; data fit to the quadratic equation for a reversible association reaction; conditions: both partners purified
T1 construct: extracellular domain of human anti-Müllerian hormone receptor type-2 (AMHR2); Fc portion of human IgG1 (Ig gamma-1 chain constant region), the Fc-only chain; Functionally monovalent for AMHR2; also called soluble receptor; soluble AMHR2; source: human embryonic kidney 293E cells, purified from conditioned medium (Protein A Sepharose, size-exclusion chromatography); copies: 1 + 1

[2] = target: T2, BMP-7 prodomain biotinylated through amines (human, UniProt P18075 30-292, biotin through amines (EZ-Link NHS-PEG4-Biotin)); assay: ELISA; BMP-7 complexes with biotinylated prodomain or biotinylated GF captured on anti-BMP-7 GF mAb; bound prodomain or GF detected with SA-HRP (biotinylated prodomain preparation also added as preformed complex with SA-HRP); 0.1% Tween-20 in all incubations; Kd from modeling of the concentration dependence; conditions: both partners purified
T2 construct: prodomain of human bone morphogenetic protein 7 (BMP-7); 90% pure, with about 10% unprocessed BMP-7; also called biotinylated prodomain; source: CHO cells; soluble BMP-7 biotinylated, prodomain eluted from Zn-chelating Sepharose with 50 mM imidazole
T2 sequence (P18075 30-292): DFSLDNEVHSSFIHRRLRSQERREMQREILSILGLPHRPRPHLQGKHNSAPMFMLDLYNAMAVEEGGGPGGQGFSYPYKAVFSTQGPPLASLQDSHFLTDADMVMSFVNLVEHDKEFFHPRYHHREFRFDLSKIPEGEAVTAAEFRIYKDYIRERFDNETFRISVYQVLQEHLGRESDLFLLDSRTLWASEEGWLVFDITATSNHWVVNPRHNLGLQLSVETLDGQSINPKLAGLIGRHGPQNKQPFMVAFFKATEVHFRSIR

Row | Binder | Kd [1] [nM] | Kd [2] [nM]
1 | anti-Müllerian hormone growth factor (AMH GF), the mature C-terminal domain (ligand, human, UniProt P03971 452-560, looked up, C-terminal growth factor (GF) domain of human AMH, the mature product of cleavage at the monobasic site (R451); Disulfide-linked homodimer; also called mature GF; C-terminal GF; source: in the prodomain/GF rows it is the GF part of c-AMH (CHO cells, plasmin cleaved)) SAGATAADGPCALRELSVDLRAERSVLIPETYQANNCQGVCGWPQSDRNPRYGNHVVLLLKMQVRGAALARPPCCVPTAYAGKLLISLSEERISAHHVPNMVATECGCR | 0.03 | –
2 | mature BMP-7 growth factor (unmodified mature domain) (ligand, human, UniProt P18075 293-431, looked up, mature growth factor (GF) domain of human BMP-7; also called BMP-7 GF; source: CHO cells; mature BMP-7 eluted from Zn-chelating Sepharose with 6 M urea) STGSKQRSQNRSKTPKNQEALRMANVAENSSSDQRQACKKHELYVSFRDLGWQDWIIAPEGYAAYYCEGECAFPLNSYMNATNHAIVQTLVHFINPETVPKPCCAPTQLNAISVLYFDDSSNVILKKYRNMVVRACGCH | – | 0.1 to 0.2

From PMC8801479, “The anti-Müllerian hormone prodomain is displaced from the hormone/prodomain complex upon bivalent binding to the hormone receptor” (The Journal of Biological Chemistry, 2021)
